Read-outs that look alike come from different tables or passages of the source.
Assays:
[1] = test system: hemG knockout E. coli strain; assay type: cell-based
[2] = PPO enzyme assay, apparent Km for substrate; assay type: biochemical; conditions: substrate protoporphyrinogen
[3] = test system: transgenic soybean plants; assay: S-3100 tolerance of transformed soybean plantlets at five weeks; assay type: in vivo; parameters: key to Tolerance score to S-3100 at 5 weeks: 0 for poor tolerance, high damage, low green coloration; 1 for some tolerance, average damage, moderate green coloration; 2 for good tolerance, low damage, high green coloration; conditions: for tolerance to the PPO herbicide in high-throughput screening at five weeks: S-3100, over the constructs with different transit peptides; for Tolerance score to S-3100 at 5 weeks: day four post application
Description: (§1) The microbial HemY PPO enzymes were expressed in transgenic soybean plants, and the transgenic plants were analyzed for PPO herbicide tolerance. […] For plant transformation, the nucleotide sequences encoding the HemY PPO enzymes were codon optimized for dicot expression. This permitted the side-by-side comparison of the seven different HemY PPO enzymes with thirty-nine different targeting peptides using the same promoter and 3′UTR elements for gene expression
(§2) The plant transformation constructs were used to transform soybean excised embryos (germplasm A3555) using A. tumefaciens and standard methods known in the art. Four hundred explants were inoculated for each construct resulting in twelve containers per construct. A sterile PPO herbicide solution was used for herbicide tolerance testing. The herbicide solution consisted of 0.3 g of S-3100 in crop oil concentrate (5.0 mL) and 495 mL of deionized water. This was filtered through a 0.45 micron Nalgene® Rapid-Flow™ Tissue Culture Filter Unit and Surfactant-Free Cellulose Acetate membrane filter unit (VWR, Radnor, Pa., USA). The resulting sterile solution was shaken before application.
At five weeks post-transformation, four of the twelve plant containers per construct were sprayed with two passes of the sterile PPO herbicide solution. The treated plantlets were then enclosed in the container and received at least 15 hours of light exposure post spray each day for four days. At the end of day four post application of S-3100, the treated plantlets were photographed and scored on a visual scale of green coloration (green coloration was representative of healthy photosynthetic plant tissue as compared to photo-bleached tissue) versus damage. The scoring values were 0 for poor tolerance, high damage, low green coloration; 1 for some tolerance, average damage, moderate green coloration; and 2 for good tolerance, low damage, high green coloration. The results of herbicide application of S-3100 at five weeks is presented in Table 5, where n.d. indicates the analysis was not conducted.

[4] = test system: transgenic soybean plants; assay: S-3100 herbicide injury of R0 transgenic soybean plants at eleven weeks; assay type: in vivo; conditions: for tolerance to the PPO herbicide, R0 plants at eleven weeks: S-3100, injury rating compared with non-transgenic control (30% or above); for Tolerance score to S-3100 at 11 weeks (herbicide injury rating): R0 plants, seven days after treatment
Description: as §1, §2
Plants in the non-sprayed containers corresponding to constructs having a high passing score of 2 and a few fails as negative controls were transplanted at approximately 7 weeks post transformation. The R0 plants were grown in a greenhouse under long-day nursery conditions (18 hr light at 80° F. then 6 hr dark at 74° F.) for approximately four weeks. At eleven weeks, the R0 plants were sprayed with two passes of the same herbicide solution (0.3 g of S-3100) described above. Herbicide injury ratings were collected seven days after treatment. Any injury rating of 30% or above was equivalent to non-transgenic soybean injury ratings. The results of the herbicide tolerance application at eleven weeks to the R0 plants are presented in Table 6, where n.d. indicates the analysis was not conducted.

[5] = acifluorfen, flumioxazin, lactofen, or fomesafen, saturating amount

B1: E. coli HemG: E. coli PPO enzyme HemG (protoporphyrinogen IX dehydrogenase; GenBank Accession No. WP_021498199), SEQ ID NO:76 (protein, listed as Escherichia coli)
chain: MKTLILFSTRDGQTREIASYLASELKELGIQADVANVHRIEEPQWENYDRVVIGASIRYGHYHSAFQEFVKKHATRLNSMPSAFYSVNLVARKPEKRTPQTNSYARKFLMNSQWRPDRCAVIAGALRYPRYRWYDRFMIKLIMKMSGGETDTRKEVVYTDWEQVANFAREIAHLTDKPTLK
growth rate of hemG knockout E. coli strain in presence of PPO herbicide [1, 5]: normal growth rates
Km [2]: 1.6 µM

B2: R2N70: microbial HemY protoporphyrinogen oxidase, SEQ ID NO:3 (protein, listed as Bacillus subtilis)
chain: MSDGKKHVVIIGGGITGLAAAFYMEKEIKEKNLPLELTLVEASPRVGGKIQTVKKDGYIIERGPDSFLERKKSAPQLVKDLGLEHLLVNNATGQSYVLVNRTLHPMPKGAVMGIPTKIAPFVSTGLFSLSGKARAAMDFILPASKTKDDQSLGEFFRRRVGDEVVENLIEPLLSGIYAGDIDKLSLMSTFPQFYQTEQKHRSLILGMKKTRPQGSGQQLTAKKQGQFQTLSTGLQTLVEEIEKQLKLTKVYKGTKVTKLSHSGSGYSLELDNGVTLDADSVIVTAPHKAAAGMLSELPAISHLKNMHSTSVANVALGFPEGSVQMEHEGTGFVISRNSDFAITACTWTNKKWPHAAPEGKTLLRAYVGKAGDESIVDLSDNDIINIVLEDLKKVMNINGEPEMTCVTRWHESMPQYHVGHKQRIKELREALASAYPGVYMTGASFEGVGIPDCIDQGKAAVSDALTYLFS
tolerance to the PPO herbicide in high-throughput screening at five weeks [3]: provided tolerance
Tolerance score to S-3100 at 5 weeks ([3]; targeting peptide TP2): 2
Tolerance score to S-3100 at 5 weeks ([3]; targeting peptide TP3): 1
Tolerance score to S-3100 at 5 weeks ([3]; targeting peptide TP4): 0
Tolerance score to S-3100 at 5 weeks ([3]; targeting peptide TP6): 0
Tolerance score to S-3100 at 5 weeks ([3]; targeting peptide TP8): 0
Tolerance score to S-3100 at 5 weeks ([3]; targeting peptide TP16): 0
Tolerance score to S-3100 at 5 weeks ([3]; targeting peptide TP21): 0
Tolerance score to S-3100 at 5 weeks ([3]; targeting peptide TP31): 1
Tolerance score to S-3100 at 5 weeks ([3]; targeting peptide TP33): 0
tolerance to the PPO herbicide, R0 plants at eleven weeks [4]: did not provide tolerance
Tolerance score to S-3100 at 11 weeks (herbicide injury rating) ([4]; targeting peptide TP2): 30%
growth rate of hemG knockout E. coli strain in presence of PPO herbicide ([1]; acifluorfen and S-3100): slower
tolerance to acifluorfen and S-3100 compared with strain containing R2N30 or R2N40 ([1]; acifluorfen and S-3100): much better

B3: R1 N311: microbial HemY protoporphyrinogen oxidase, SEQ ID NO:16 (protein, listed as Bacillus atrophaeus)
chain: MSDGKKHLVIIGGGITGLASAFYMEKEIREKNLPLSVTLVEASPRVGGKIQTARKDGYIIERGPDSFLERKKSAPELVEDLGLEHLLVNNATGQSYVLVNETLHPMPKGAVMGIPTKIAPFMSTGLFSFSGKARAAMDFVLPASKPKEDQSLGEFFRRRVGDEVVENLIEPLLSGIYAGDIDRLSLMSTFPQFYQTEQKHRSLILGMKKTRPQGSGQRLTAKKQGQFQTLKTGLQTLVEELENQLKLTKVYKGTKVTNISRGEKGCSIALDNGMTLDADAAIVTSPHKSAAGMFPDLPAVSQLKDMHSTSVANVALGFPQEAVQMEHEGTGFVISRNSDFSITACTWTNKKWPHSAPEGKTLLRAYVGKAGDESIVELSDNEIIKIVLEDLKKVMKIKGEPEMTCVTRWNESMPQYHVGHKQRIKKVREALAASYPGVYMTGASFEGVGIPDCIDQGKSAVSDVLAYLFG
growth rate of hemG knockout E. coli strain in presence of PPO herbicide [1, 5]: did not grow

B4: R1N333: microbial HemY PPO, SEQ ID NO:17 in bacterial assay; truncated SEQ ID NO:21 in soybean (protein, listed as Bacillus atrophaeus)
chain: MSDGKKHLVIIGGGITGLASAFYMEKEIREKNLPLSVTLVEASPRVGGKIQTARKDGYIIERGPDSFLERKKSAPELVEDLGLEHLLVNNATGQSYVLVNETLHPMPKGAVMGIPTKIAPFMSTRLFSFSGKARAAMDFVLPASKPKEDQSLGEFFRRRVGDEVVENLIEPLLSGIYAGDIDRLSLMSTFPQFYQTEQKHRSLILGMKKTRPQGSGQQLTAKKQGQFQTLKTGLQTLVEELENQLKLTKVYKGTKVTNISRGEKGCSIALDNGMTLDADAAIVTSPHKSAAGMFPDLPAVSQLKDMHSTSVANVALGFPQEAVQMEHEGTGFVISRNSDFSITACTWTNKKWPHSAPEGKTLLRAYVGKAGDESIVELSDNEIIKIVLEDLKKVMKIKGEPEMTCVTRWNESMPQYHVGHKQRIKKVREALAASYPGVYMTGASFEGVGIPDCIDQGKSAVSDVLAYLFE
tolerance to the PPO herbicide in high-throughput screening at five weeks [3]: did not provide tolerance
Tolerance score to S-3100 at 5 weeks ([3]; targeting peptide TP2): 0
Tolerance score to S-3100 at 5 weeks ([3]; targeting peptide TP3): 0
Tolerance score to S-3100 at 5 weeks ([3]; targeting peptide TP4): 0
Tolerance score to S-3100 at 5 weeks ([3]; targeting peptide TP6): 0
Tolerance score to S-3100 at 5 weeks ([3]; targeting peptide TP7): 0
Tolerance score to S-3100 at 5 weeks ([3]; targeting peptide TP8): 0
Tolerance score to S-3100 at 5 weeks ([3]; targeting peptide TP9): 1
Tolerance score to S-3100 at 5 weeks ([3]; targeting peptide TP11): 0
Tolerance score to S-3100 at 5 weeks ([3]; targeting peptide TP12): 1
Tolerance score to S-3100 at 5 weeks ([3]; targeting peptide TP13): 0
Tolerance score to S-3100 at 5 weeks ([3]; targeting peptide TP14): 0
Tolerance score to S-3100 at 5 weeks ([3]; targeting peptide TP15): 0
Tolerance score to S-3100 at 5 weeks ([3]; targeting peptide TP16): 0
Tolerance score to S-3100 at 5 weeks ([3]; targeting peptide TP17): 0
Tolerance score to S-3100 at 5 weeks ([3]; targeting peptide TP18): 0
Tolerance score to S-3100 at 5 weeks ([3]; targeting peptide TP19): 0
Tolerance score to S-3100 at 5 weeks ([3]; targeting peptide TP21): 0
Tolerance score to S-3100 at 5 weeks ([3]; targeting peptide TP22): 0
Tolerance score to S-3100 at 5 weeks ([3]; targeting peptide TP23): 1
Tolerance score to S-3100 at 5 weeks ([3]; targeting peptide TP24): 0
Tolerance score to S-3100 at 5 weeks ([3]; targeting peptide TP25): 0
Tolerance score to S-3100 at 5 weeks ([3]; targeting peptide TP26): 0
Tolerance score to S-3100 at 5 weeks ([3]; targeting peptide TP27): 1
Tolerance score to S-3100 at 5 weeks ([3]; targeting peptide TP28): 0
Tolerance score to S-3100 at 5 weeks ([3]; targeting peptide TP29): 1
Tolerance score to S-3100 at 5 weeks ([3]; targeting peptide TP30): 0
Tolerance score to S-3100 at 5 weeks ([3]; targeting peptide TP31): 1
Tolerance score to S-3100 at 5 weeks ([3]; targeting peptide TP32): 0
Tolerance score to S-3100 at 5 weeks ([3]; targeting peptide TP33): 0
Tolerance score to S-3100 at 5 weeks ([3]; targeting peptide TP34): 1
Tolerance score to S-3100 at 5 weeks ([3]; targeting peptide TP36): 1
tolerance to the PPO herbicide, R0 plants at eleven weeks [4]: did not provide tolerance
Tolerance score to S-3100 at 11 weeks (herbicide injury rating) ([4]; targeting peptide TP8): 35%
Tolerance score to S-3100 at 11 weeks (herbicide injury rating) ([4]; targeting peptide TP9): 35%
Tolerance score to S-3100 at 11 weeks (herbicide injury rating) ([4]; targeting peptide TP14): 35%
growth rate of hemG knockout E. coli strain in presence of PPO herbicide [1, 5]: did not grow

B5: A. tuberculatus PPO: wild-type protoporphyrinogen oxidase from Amaranthus tuberculatus (WH), SEQ ID NO:80, negative control expressed in E. coli (protein, listed as Amaranthus tuberculatus)
chain: MGNISEREEPTSAKRVAVVGAGVSGLAAAYKLKSHGLSVTLFEADSRAGGKLKTVKKDGFIWDEGANTMTESEAEVSSLIDDLGLREKQQLPISQNKRYIARDGLPVLLPSNPAALLTSNILSAKSKLQIMLEPFLWRKHNATELSDEHVQESVGEFFERHFGKEFVDYVIDPFVAGTCGGDPQSLSMHHTFPEVWNIEKRFGSVFAGLIQSTLLSKKEKGGENASIKKPRVRGSFSFQGGMQTLVDTMCKQLGEDELKLQCEVLSLSYNQKGIPSLGNWSVSSMSNNTSEDQSYDAVVVTAPIRNVKEMKIMKFGNPFSLDFIPEVTYVPLSVMITAFKKDKVKRPLEGFGVLIPSKEQHNGLKTLGTLFSSMMFPDRAPSDMCLFTTFVGGSRNRKLANASTDELKQIVSSDLQQLLGTEDEPSFVNHLFWSNAFPLYGHNYDSVLRAIDKMEKDLPGFFYAGNHKGGLSVGKAMASGCKAAELVISYLDSHIYVKMDEKTA
sensitivity to PPO herbicides (negative control) ([1]; all of the PPO herbicides): sensitive to all of the PPO herbicides
